# T1: Native human C1r enzyme (Comptech A102) (human, UniProt P00736 18-705)
# T1 construct: mature
# T1 sequence (looked up): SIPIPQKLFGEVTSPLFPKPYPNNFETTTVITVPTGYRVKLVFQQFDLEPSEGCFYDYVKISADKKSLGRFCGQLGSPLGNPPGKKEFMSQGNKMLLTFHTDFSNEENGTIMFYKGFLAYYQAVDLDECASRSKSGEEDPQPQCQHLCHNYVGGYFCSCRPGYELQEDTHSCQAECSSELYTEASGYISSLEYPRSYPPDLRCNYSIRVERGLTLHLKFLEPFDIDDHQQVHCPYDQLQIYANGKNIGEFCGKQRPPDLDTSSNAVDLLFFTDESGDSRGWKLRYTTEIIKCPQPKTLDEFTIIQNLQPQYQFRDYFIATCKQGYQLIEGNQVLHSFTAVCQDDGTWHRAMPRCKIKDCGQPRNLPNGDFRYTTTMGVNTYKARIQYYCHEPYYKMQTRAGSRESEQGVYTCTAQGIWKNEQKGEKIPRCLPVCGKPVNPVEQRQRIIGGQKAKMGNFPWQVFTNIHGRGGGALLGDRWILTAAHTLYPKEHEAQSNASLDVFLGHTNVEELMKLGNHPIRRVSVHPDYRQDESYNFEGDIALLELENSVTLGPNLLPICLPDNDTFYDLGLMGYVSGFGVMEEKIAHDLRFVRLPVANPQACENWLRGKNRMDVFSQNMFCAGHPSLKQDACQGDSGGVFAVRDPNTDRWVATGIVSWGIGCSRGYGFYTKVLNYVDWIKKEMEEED
# Molecular target: T1, Native human C1r enzyme (Comptech A102)
# Test: SPR (BIACORE T200, 37 degrees C, pH 7.4), antibody captured by protein A/G, C1r 25 nM as a dimer
# Experimental: The binding specificities of human C1r CUB1-EGF-CUB2 binders are determined at 37 degrees C. using BIACORE® T200 instrument (GE Healthcare). Recombinant Protein A/G (Pierce) is immobilized onto all flow cells of a CM4 sensor chip using an amine coupling kit (GE Healthcare). Antibodies and analytes are prepared in 7(+) buffer (20 mM ACES, 150 mM NaCl, 1.2 mM CaCl₂, 0.05% Tween 20, 1 mg/mL BSA (IgG-free), 1 mg/mL CMD, 0.005% NaN₃, pH 7.4). Each antibody is captured onto the sensor surface by protein A/G. Antibody capture levels are aimed at 100 resonance unit (RU). Native human C1r enzyme (Comptech A102) (at 25 nM as a dimer) or recombinant human C1r CCP1-CCP2-SP-FLAG (at 50 nM as a monomer) is injected, followed by dissociation. Sensor surface is regenerated each cycle with 10 mM Glycine-HCl pH 1.5. It may be determined that C1r CUB1-EGF-CUB2 binders bound to the native human C1r enzyme , but not recombinant human C1r CCP1-CCP2-SP-FLAG, which is a truncated protein lacking the CUB1-EGF-CUB2 domain of C1r.
row,Binder,binding result
1,"COR0058bb-SG1148 (antibody, human IgG1, kappa, V domains shown, Anti-C1r antibody) VH: QSVEESGGRLVTPGTPLTLTCTASGFDISNYNMQWVRQSPGKGLEWIGIIWSGGYTDYANWAKGRFTISATSTTVDLKSTSPTTEDTATYFCARQGANFGDYTVDLWGPGTLVTVSS VL: AYDMTQTPASVEVAVGGTVTIKCQASQSIRSSLAWYQQKPGQRPKLLIYRASTLASGVSSRFKGSGSGTQFTLTISGVECADAATYYCQQGYSNINVDNTFGGGTKVEIKR",binds
2,"COR0212bb-SG1148 (antibody, human IgG1, kappa, V domains shown, Anti-C1r antibody) VH: QEQLKESGGGLVTPGGTLTLTCTASGFSLSSYDMSWVRQAPGKGLDWIGIINTGGSAYYATWAKGRFTISKTSTTVDLKITSPTTEDTATYFCGRKINDAFDPWGPGTLVTVSS VL: AQVLTQTPFSVSAAVGGTVTINCQASESISSNLAWYQQKPGQPPKLLIYDASDLASGVPSRFKGSGSGKQFTLTISGVQCDDAATYFCQHGWIYDTIDSNCFGGGTKVEIKR",binds
3,"COR0067ff-SG1148 (antibody, human IgG1, kappa, V domains shown, Anti-C1r antibody) VH: QSLEESGGGLVQPEGSLTLTCKASGIDFSSNAMCWVRQAPGKGLEWIGCIYTGSTTIWYASWAKGRFTISKTSSTTVTLQLNSLTVADTATYFCARRDSSSGYAFKLWGPGTLVTVSS VL: DIVMTQTPSSVSAAVGGTVTIKCQASENIYSNLAWYQQKSGQPPNLLIYGASTLESGVPSRFKGSGSGTEFTLTISDLECADAAIYYCQCTYDDSSTFGGGTKVEIKR",binds
4,"COR0205gg-SG1148 (antibody, human IgG1, kappa, V domains shown, Anti-C1r antibody; also called COR205gg(-SG1148)) VH: QSLEESGGGLFKPTDTLTLTCTVSGFSLSSNAMSWVRQAPGKGLEYIGIIYLTGVTYYATWAKGRFTISKTSTTVDLKITSPTTEDTATYFCAGGEFSLWGPGTLVTVSS VL: DIIMTQTPASVEAAVGGTVTIKCQASQGIDNYFSWHQQKPGQPPKLLIYKASTLASGVSSRFKGSGSGTEFTLTISDLECDDAATYYCQCTYGYNINDNYGNAFGGGTKVEIKR",binds

# More lines, now with the values ahead:
row,binding result,Binder
1,binds,"COR0338gg-SG1148 (antibody, human IgG1, kappa, V domains shown, Anti-C1r antibody) VH: QSLEESGGGLVQPEGSLTLTCKASGIDFSSNAMCWVRQAPGKGLEWIACIYTGSTTIWYATWAKGRFTISKTSSTTVTLQLNSLTVADTATYFCARRASSSGYAFKLWGPGTLVTVSS VL: DVVMTQTPFSVSAAVGGTVTIKCQASESIYSNLAWYQQKPGQPPNLLIYGASTLESGVPSRFKGSGSGTEFTLTISDLECDDAAIYYCQCTYDDSSTFGGGTKVEIKR"
2,binds,"COR0208cc-SG1148 (antibody, human IgG1, kappa, V domains shown, Anti-C1r antibody; also called COR208; COR208cc(-SG1148)) VH: QSVEESGGRLVTPGTPLTLTCTVSGFSLSNYYMNWVRQAPGKGLEWIGIIASDDNTWYASWAKGRFTISKTSTTVDLKITSPTTEDTATYFCARDLDVGYGSGWYDLWGQGTLVTVSS VL: AAVLTQTPSPVSVAVGGTVTINCQASQSVYNNNYLAWYQQEPGHRPKLLIYRASKLASGVPSRFSGSGSGTQFTLTISGVQCDDAATYYCLGGYDDFTDTTFGGGTKVEIKR"
3,binds,"COR0278bb-SG1148 (antibody, human IgG1, kappa, V domains shown, Anti-C1r antibody) VH: QSLEESGGRLVTPGTPLTLTCTASGFSLSSYDMTWVRQAPGKGLEWIGIIYTLGSAYYASWAKGRFTISRTSTTVDLKMTSPTTEDTATYFCARGGDSYGAVDTAFDLWGPGTLVTVSS VL: AQVLTQTPSPVSAAVGGTVTISCQSSPSVYSNYLSWYQQKPGQPPKLLIYRASRLASGVPSRFKGSGSGTQFTLTISEVQCDDAATYYCQGYFGNGINAFGGGTKVEIKR"
4,binds,"COR0011bb-SG1148 (antibody, human IgG1, kappa, V domains shown, Anti-C1r antibody) VH: QSLEESGGRLVTPGTPLTLTCTASGFTFSGYYMCWVRQTPGKGLEYIGIIASSGNTYYANWAKGRFTISKTSSTTVDLKMTSLTTEDTATYFCAKPESDYVNGMGLWGPGTLVTVSS VL: DIVMTQTPASVSDPVGGTVTIKCQASQSIYNLLSWYQQKPGQRPKLLIYDASKLASGVPSRFKGSGYGTDFTLTISDLGCADAATYYCQSNYGYSRTDDTFFYGFGGGTKVEIKR"

# Source: patent US20210198347A1 (Chugai, published 2021)
